Laboratory results reported in US20240010684A1, “MASP INHIBITORY COMPOUNDS AND USES THEREOF” (BAYER AKTIENGESELLSCHAFT, priority 2020, published 2024).

What was measured:
[1] = target: recombinant human MASP2 (amino acids 297-686, C-terminal His Tag) (human) (UniProt O00187); assay: cell-based or functional assay
[2] = target: T1, recombinant human MASP1 (amino acids 297-699, C-terminal His Tag) (human) (UniProt P48740); assay: cell-based or functional assay
T1 sequence: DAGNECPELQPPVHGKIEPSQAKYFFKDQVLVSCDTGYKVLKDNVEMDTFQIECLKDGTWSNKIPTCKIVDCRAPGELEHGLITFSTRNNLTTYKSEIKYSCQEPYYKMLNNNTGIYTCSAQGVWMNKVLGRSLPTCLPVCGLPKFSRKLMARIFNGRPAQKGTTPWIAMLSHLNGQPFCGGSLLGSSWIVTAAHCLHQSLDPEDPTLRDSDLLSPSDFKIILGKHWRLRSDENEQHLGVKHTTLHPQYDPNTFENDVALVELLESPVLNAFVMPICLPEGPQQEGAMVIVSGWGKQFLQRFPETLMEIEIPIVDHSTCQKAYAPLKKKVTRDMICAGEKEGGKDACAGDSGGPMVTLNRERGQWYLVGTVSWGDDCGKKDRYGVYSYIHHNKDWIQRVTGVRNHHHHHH

Chain of recombinant human MASP2 (amino acids 297-686, C-terminal His Tag) (human) (O00187 other isoform, or with tags, fused parts or gaps limits assumed): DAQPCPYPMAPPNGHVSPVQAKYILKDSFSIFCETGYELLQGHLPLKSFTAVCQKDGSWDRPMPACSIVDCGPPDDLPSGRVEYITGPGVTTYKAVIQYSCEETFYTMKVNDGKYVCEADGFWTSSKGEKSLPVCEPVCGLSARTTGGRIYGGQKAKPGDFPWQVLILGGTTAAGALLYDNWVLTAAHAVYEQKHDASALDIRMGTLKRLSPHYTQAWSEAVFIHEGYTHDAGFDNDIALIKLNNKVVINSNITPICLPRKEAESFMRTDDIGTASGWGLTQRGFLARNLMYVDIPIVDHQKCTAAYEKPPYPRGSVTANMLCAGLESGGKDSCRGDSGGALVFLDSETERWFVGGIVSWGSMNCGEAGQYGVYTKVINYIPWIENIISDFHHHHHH

Example 47: A**GGIC+SRS-((tBu)A)-PPI-((N-Me)C)+-IPd** (peptide)
human MASP2 IC50 [1]: 66 nM | human MASP1 IC50 [2]: 8.2 nM
